According to US20200165343A1 (Dana-Farber, published 2020):

T1: MICA extracellular domain (α1-α3 domains), allele not stated (human, UniProt Q29983 24-307)
T1 construct: extracellular domain; also called MICA α1-α3 domains; full-length extracellular domain
T1 sequence (looked up): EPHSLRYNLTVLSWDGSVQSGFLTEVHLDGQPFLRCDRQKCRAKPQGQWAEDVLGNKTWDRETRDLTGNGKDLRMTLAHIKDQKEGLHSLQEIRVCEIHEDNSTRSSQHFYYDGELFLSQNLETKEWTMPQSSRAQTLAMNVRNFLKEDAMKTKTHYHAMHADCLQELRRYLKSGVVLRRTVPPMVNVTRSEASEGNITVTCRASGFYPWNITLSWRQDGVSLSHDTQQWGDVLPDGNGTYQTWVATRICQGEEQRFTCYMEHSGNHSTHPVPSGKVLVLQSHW


Legend:
[1] = molecular target: MICA extracellular domain (α1-α3 domains), allele not stated (human) (UniProt Q29983); assay: fluorescence ELISA (DELFIA): immobilized MICA extracellular domain, antibody titrated, biotinylated anti-mouse IgG + Europium-streptavidin
[2] = molecular target: T1, MICA extracellular domain (α1-α3 …); assay: as above
Method: ELISA experiments were performed in DELFIA® 96-well plates (Perkin Elmer) or in Nunc Maxisorp 96-wells plates (Thermo Scientific). Wells were coated with antigens by overnight incubation at 4° C. using 100 ng of protein in 100 μl of carbonate buffer, pH 7.4. Plates were subsequently washed with 1× Tris-buffered saline-Tween buffer and incubated for 2 hours with 2% bovine serum albumin (BSA) in phosphate buffered saline (PBS), pH 7.4, or DELFIA® Assay Buffer (Perkin Elmer) at room temperature. MICA antibodies were used at 1 μg/ml, unless indicated otherwise. […] Europium fluorescence was quantified using an EnVision® microplate reader (Perkin Elmer). […] Absorbance was read at 450 nm.

Row | EC50 [1] [µg/mL] | EC50 [2] [µg/mL] | Molecule
1 | 1 |  | mAb 6D4 (anti-MICA/B antibody, clone 6D4, Biolegend; specific for the MICA α1-α2 domains)
2 |  | 1 | mAb 7C6 (parental murine IgG2b monoclonal antibody specific for the MICA/B α3 domain) (antibody, V domains shown, Mouse hybridoma antibody; also called 7C6 mAb; 7C6-mIgG2b) VH: QIQLVQSGPELKKPGETVKVSCKASGYMFTNYAMNWVKQAPEKGLKWMGWINTHTGDPTYADDFKGRIAFSLETSASTAYLQINNLKNEDTATYFCVRTYGNYAMDYWGQGTSVTVSS VL: DIQMTQTTSSLSASLGDRVTISCSASQDISNYLNWYQQKPDGTVKLLIYDTSILHLGVPSRFSGSGSGTDYSLTISNLEPEDIATYYCQQYSKFPRTFGGGTTLEIK
